In paper PMC12427885 (Foods, 2025) one finds Ki, Km and stoichiometry N data, which are given here for three molecules.

One series concerns the target T1, DAO-GH (Glutamicibacter halophytocola, UniProt Z9MBQ1XXX8).
T1 construct: gene from G. halophytocola isolate, codon-optimized, intracellular expression in Komagataella phaffii; partially purified (PEI, ammonium sulfate, HIC)
Briefly: DA-67/horseradish peroxidase coupled H2O2 assay, […] nm; Michaelis-Menten nonlinear regression. As to conditions: substrate inhibition by tyramine; second site; 25 mM potassium phosphate pH 6.8, 37 °C; partially purified enzyme. It is filed as biochemical.

The subject of another series is NCCc1ccc(O)cc1. Briefly: purified protein. As to conditions: apparent, 25 mM potassium phosphate pH 6.8, 37 °C, 0.005-3 mM tyramine, partially purified enzyme.
Series [1] deals with diamine oxidase from Glutamicibacter halophytocola (DAO-GH) (Glutamicibacter halophytocola). Briefly: SEC; HiLoad 16/600 Superdex 200 prep grade; 50 mM sodium phosphate, 150 mM NaCl, pH 7; 1 mL/min; HIC-purified (partially purified) DAO-GH; fractions analysed for DAO activity; calibrated with the high molecular weight gel filtration kit; native mass compared with the monomer's mass. Background: In gel filtration, larger molecules generally elute earlier.

T1 sequence (Z9MBQ1XXX8 1-653): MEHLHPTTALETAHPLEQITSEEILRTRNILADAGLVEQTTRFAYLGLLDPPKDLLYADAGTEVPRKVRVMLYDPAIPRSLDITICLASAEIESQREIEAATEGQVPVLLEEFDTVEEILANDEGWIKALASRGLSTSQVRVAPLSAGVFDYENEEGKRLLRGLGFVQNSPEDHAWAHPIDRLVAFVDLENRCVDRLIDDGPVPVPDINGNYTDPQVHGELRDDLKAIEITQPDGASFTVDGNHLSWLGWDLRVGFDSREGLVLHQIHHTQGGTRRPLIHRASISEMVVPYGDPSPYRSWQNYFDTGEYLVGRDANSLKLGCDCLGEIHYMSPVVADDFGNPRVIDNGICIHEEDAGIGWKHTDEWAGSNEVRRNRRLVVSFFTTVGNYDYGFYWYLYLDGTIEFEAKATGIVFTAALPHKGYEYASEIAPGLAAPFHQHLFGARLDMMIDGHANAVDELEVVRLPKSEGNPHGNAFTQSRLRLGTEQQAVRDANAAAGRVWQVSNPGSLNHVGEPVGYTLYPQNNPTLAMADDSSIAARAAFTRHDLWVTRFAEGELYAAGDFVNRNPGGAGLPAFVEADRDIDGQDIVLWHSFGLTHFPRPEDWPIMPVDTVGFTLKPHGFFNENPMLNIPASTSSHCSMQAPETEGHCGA

The molecule `NCCc1ccc(O)cc1` [tyramine] yielded a Ki at DAO-GH of 10.4 ± 4.0 mM.
For the molecule DAO-GH (Glutamicibacter halophytocola), the Km (as a rule, the substrate concentration at which the rate is half of its maximum) in the series with NCCc1ccc(O)cc1 came to 9 ± 0.2 µM.
As to “diamine oxidase from Glutamicibacter halophytocola (DAO-GH) (enzyme)”, the stoichiometry N (in general, the number of molecules, sites or subunits per partner or assembly) in series [1] worked out at 2.
